Assay results: patent US20020169291A1

What was measured:
[1] = target: mature human IL-18 K89A mutant (human) (UniProt Q14116); test: cell-based or functional assay
[2] = target: mature human IL-18 WT, generated by factor Xa cleavage of proIL-18 (ICE/Xa) (human) (UniProt Q14116); test: cell-based or functional assay
mature human IL-18 WT, generated by factor Xa cleavage of proIL-18 (ICE/Xa) (human), sequence (Q14116 37-193 limits assumed): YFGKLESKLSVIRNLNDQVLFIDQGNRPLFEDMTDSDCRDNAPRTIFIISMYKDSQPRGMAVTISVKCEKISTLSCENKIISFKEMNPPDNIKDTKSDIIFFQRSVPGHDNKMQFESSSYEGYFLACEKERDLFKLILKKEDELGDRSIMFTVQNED

mature human IL-18 K89A mutant (human), sequence (Q14116 37-193 K89A): as the sequence (Q14116 37-193 limits assumed) above, with K53A counted along it

"a" isoform of CHO cell produced recombinant his-6-tagged human IL-18BP (from UniProt O95998 31-194)
IL-18BP concentration giving a statistically significant reduction of IFN-γ co-induction in NKO cells [1]: 120 ng/mL
IL-18BP concentration that neutralized IFN-γ induction in PBMCs [1]: 120 ng/mL
50% inhibitory concentration of IL-18BP for co-induction of IFN-γ from NKO cells [2]: 15 ng/mL
amount of IL-18BP needed to neutralize IFN-γ induction in PBMCs [2]: 3.7 ng/mL
